Results on two molecules are retold here after publication PMC9951844 (2023).

In assay [1] the target is T1, SARS-CoV-2 wildtype RBD (SARS-CoV-2, UniProt P0DTC2 332-527). In words: BLI.
Assay [2] deals with T1, SARS-CoV-2 wildtype RBD. Put plainly: BLI. The source holds these as a separate data set. (In BLI a coated tip is dipped into the sample, and binding shifts an interference pattern.)

B1: YB9-258 IgG (antibody, V domains shown)
VH: EVQLVESGGGLIQPGGSLRLSCAASGLTVSSNYMHWVRQAPGKGLEWVSVLYAGGSAFYADSVKGRFTISRNNSKNTLYLQMNSLRAEDTAIYYCARGLGDYLDSWGQGTLVTVSS
VL: DIQMTQSPSSVSASVGDRVTITCRASQGIGSWLAWYQQKPGKAPQLLIYAASTLQSGVPPRFSGSGSGTDFTLTITSLQPEDFASYYCQQANSVLALTFGGGTKVEIK
One may read the koff as the rate constant with which the complex falls apart. As a reminder, the Kd is a measure of binding affinity in units of concentration. High values mean lower affinity, low ones higher affinity. B1 showed a koff in the assay with SARS-CoV-2 wildtype RBD [1] of 7.7e-05 s⁻¹. The molecule also came in with a Kd with SARS-CoV-2 wildtype RBD [2] of 0.63 nM.

B2: YB13-292 IgG (antibody, V domains shown)
VH: EVQLVESGGGLVKPGGSLRLSCAASGFSFITYNMNWVRQAPGKGLEWVSSISSNILSSTSYIYYADSVKGRFTISRDDAANSLFLQMNSLRVEDTAQYYCARTRSRSVRNCTSATCPVDAFDLWGQGTMVIVSS
VL: DIVLTQSPLSLPVTPGEPASISCRSSQSLLRSNGYNYLDWYLQKPGQSPHLLIYLGSNRASGVPDRFSGSGSGTDFTLKISRVEAEDVGVYYCMQALQTPYTFGQGTNLEIK
The molecule B2 gave a koff with SARS-CoV-2 wildtype RBD [1] of 0.000197 s⁻¹. The same molecule gave a dissociation constant (Kd) in the assay with SARS-CoV-2 wildtype RBD [2] of 0.39 nM.
